Bounds are passed on as bounds.

The target of series [1] is Rev (Human immunodeficiency virus 1) (UniProt P04325). The series can be described thus: fluorescence. The settings on record: cited from earlier work.
Series [2] deals with the molecule itself. The experiment in a line: single-molecule TIRF fluorescence microscopy.

On to DDX1 (from UniProt Q92499), for which, in series [1], the Kd is 36 nM.

B1: HIV-1 Rev (recombinant construct with N-terminal extension, both native cysteines changed to serine, labeled with Alexa-Fluor 555) (natural protein)
chain: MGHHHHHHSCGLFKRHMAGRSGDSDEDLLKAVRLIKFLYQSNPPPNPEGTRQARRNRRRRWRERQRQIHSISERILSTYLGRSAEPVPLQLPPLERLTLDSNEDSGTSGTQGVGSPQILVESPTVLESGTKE
Turning to B1, in series [2], the Kd is approximately 1.5 nM and the “stoichiometry N” value is not above 8 Rev monomers on one RRE.

In general, Kd refers to the free concentration of one partner at which half of the binding sites on the other are occupied at equilibrium, for simple one-to-one binding. Broadly, the stoichiometry N is a count of units in the complex or per binding partner.

The values are drawn from article PMC3140434 (Journal of molecular biology, 2011).
